Experimental data reported in paper PMC3777412 (Nature communications, 2013).
Where no end group is shown, it is not given here. [ ]: non-standard residue; d: D form. The star is where a group is joined. Biotin = O=C1N[C@H]2[C@H](CS[C@H]2CCCCC(=O)*)N1; pY = N[C@@H](Cc1ccc(OP(=O)(O)O)cc1)C(=O)O

Molecular target: Grb2, histidine-tagged, purified (UniProt P62993 1-217)
Assay: SPR

Kd | Binder
68.5 ± 8.7 nM | Biotin-ASASASARV[pY]ENVGLM [pY580 peptide]
118 ± 10.3 nM | Biotin-ASASAKGHE[pY]TNIKYS [pY542 peptide]
